# Laboratory results from patent US20190330296A1 (Janssen / Centocor, published 2019).
# Positions count from the first letter of the chain named. “And” between values parts separate entries of the source, which are not always exact repeats. Equal entries are not always repeated.
# B1: GLP-1 fusion peptide GF41 (SEQ ID NO:153) (Fc fusion)
# chain: HGEGTFTSDVSSYLEEQAAKEFIAWLVKGGGASGGGGSGGGGSGGGGSGGGGSCPPCPAPEAAGGPSVFLFPPKPKDTLMISRTPEVTCVVVDVSQEDPEVQFNWYVDGVEVHNAKTKPREEQFNSTYRVVSVLTVLHQDWLNGKEYKCKVSNKGLPSSIEKTISKAKGQPREPQVYTLPPSQEEMTKNQVSLTCLVKGFYPSDIAVEWESNGQPENNYKTTPPVLDSDGSFFLYSRLTVDKSRWQEGNVFSCSVMHEALHNHYTQKSLSLSLGKASGSAPAPAPEEEPCA
# B2: GLP-1 fusion peptide GF40 (SEQ ID NO:152) (Fc fusion)
# chain: HGEGTFTSDVSSYLEEQAAKEFIAWLVKGGGASGGGGSGGGGSCPPCPAPEAAGGPSVFLFPPKPKDTLMISRTPEVTCVVVDVSQEDPEVQFNWYVDGVEVHNAKTKPREEQFNSTYRVVSVLTVLHQDWLNGKEYKCKVSNKGLPSSIEKTISKAKGQPREPQVYTLPPSQEEMTKNQVSLTCLVKGFYPSDIAVEWESNGQPENNYKTTPPVLDSDGSFFLYSRLTVDKSRWQEGNVFSCSVMHEALHNHYTQKSLSLSLGKASGSAPAPAPEEEPCA
# B3: GLP-1 fusion peptide coupled cyclic PYY peptide conjugate SEQ ID NO:248 (Fc fusion)
# chain: B2 chain
# peptide: GISPEAPGEKASPEELNRYYASLRHYLNCVTRQRY
# modifications: [cyclo-(G2-COCH2-C30), K(AcBr)11, N-Me-R35]-PYY2-36; Br displaced on conjugation to the linker Cys; C-terminal amide; Cys of the second linker peptide thioether-linked to the Lys11 side chain of the cyclic PYY peptide
# B4: GLP-1 fusion peptide coupled cyclic PYY peptide conjugate SEQ ID NO:249 (Fc fusion)
# chain: B2 chain
# peptide: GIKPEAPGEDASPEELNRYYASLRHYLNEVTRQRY
# modifications: [cyclo-(G2-E30), S4, K(AcBr)11, N-Me-R35]-PYY2-36; Br displaced on conjugation to the linker Cys; C-terminal amide; Cys of the second linker peptide thioether-linked to the Lys11 side chain of the cyclic PYY peptide
# B5: GLP-1 fusion peptide coupled cyclic PYY peptide conjugate SEQ ID NO:250 (Fc fusion)
# chain: B2 chain
# peptide: B3 peptide with C29E
# modifications: [cyclo-(G2-E30), S4, K(AcBr)11, psi-(R35,Y36)]-PYY2-36; Br displaced on conjugation to the linker Cys; C-terminal amide; Cys of the second linker peptide thioether-linked to the Lys11 side chain of the cyclic PYY peptide
# B6: GLP-1 fusion peptide GF27 (SEQ ID NO:139) (Fc fusion)
# chain: HGEGTFTSDVSSYLEEQAAKEFIAWLVKGGGAPAPAPAPAPAPAPAPAPAPAPAPAGPPCPPCPAPEAAGGPSVFLFPPKPKDTLMISRTPEVTCVVVDVSQEDPEVQFNWYVDGVEVHNAKTKPREEQFNSTYRVVSVLTVLHQDWLNGKEYKCKVSNKGLPSSIEKTISKAKGQPREPQVYTLPPSQEEMTKNQVSLTCLVKGFYPSDIAVEWESNGQPENNYKTTPPVLDSDGSFFLYSRLTVDKSRWQEGNVFSCSVMHEALHNHYTQKSLSLSLGAPAPAPAPAPAPCPEEP
# B7: GLP-1 fusion peptide GF54 (SEQ ID NO:166) (Fc fusion)
# chain: HGEGTFTSDVSSYLEEQAAKEFIAWLVKGGGASAPAPAPAPAPAPAPAPAPAPGSCPPCPAPEAAGGPSVFLFPPKPKDTLMISRTPEVTCVVVDVSQEDPEVQFNWYVDGVEVHNAKTKPREEQFNSTYRVVSVLTVLHQDWLNGKEYKCKVSNKGLPSSIEKTISKAKGQPREPQVYTLPPSQEEMTKNQVSLTCLVKGFYPSDIAVEWESNGQPENNYKTTPPVLDSDGSFFLYSRLTVDKSRWQEGNVFSCSVMHEALHNHYTQKSLSLSLGKASGSAPAPAPEEEPCA
# B8: GLP-1 fusion peptide coupled cyclic PYY peptide conjugate SEQ ID NO:239 (Fc fusion)
# chain: B7 chain
# peptide: B3 peptide
# modifications: [cyclo-(G2-COCH2-C30), K(AcBr)11, N-Me-R35]-PYY2-36; Br displaced on conjugation to the linker Cys; C-terminal amide; Cys of the second linker peptide thioether-linked to the Lys11 side chain of the cyclic PYY peptide
# Molecular target: human GLP-1 receptor (human, UniProt P43220 24-463)
# Assay: cell-based or functional assay
# Sequence of human GLP-1 receptor (P43220 24-463): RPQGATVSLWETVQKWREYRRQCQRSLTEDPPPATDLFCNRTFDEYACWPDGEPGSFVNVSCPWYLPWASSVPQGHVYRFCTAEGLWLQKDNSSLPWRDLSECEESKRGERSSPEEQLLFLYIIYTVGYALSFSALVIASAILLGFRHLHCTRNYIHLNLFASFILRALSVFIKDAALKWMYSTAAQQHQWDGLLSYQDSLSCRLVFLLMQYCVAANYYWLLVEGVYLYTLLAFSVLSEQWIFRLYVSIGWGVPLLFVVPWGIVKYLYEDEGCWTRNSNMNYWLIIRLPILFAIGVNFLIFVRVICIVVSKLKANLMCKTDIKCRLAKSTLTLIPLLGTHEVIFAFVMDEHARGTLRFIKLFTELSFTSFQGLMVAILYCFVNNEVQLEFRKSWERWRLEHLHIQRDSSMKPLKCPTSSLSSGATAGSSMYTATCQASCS
row,Binder,Human GLP1R EC50
1,B1,0.049 nM
2,B2,0.207 nM
3,B3,0.264 nM
4,B4,0.148 nM
5,B5,0.213 nM
6,B6,0.054 nM
7,B7,0.035 nM and 0.053 nM
8,B8,0.042 nM

# Molecular target: T1, human neuropeptide Y2 receptor (human, UniProt P49146 1-381)
# T1 sequence (looked up): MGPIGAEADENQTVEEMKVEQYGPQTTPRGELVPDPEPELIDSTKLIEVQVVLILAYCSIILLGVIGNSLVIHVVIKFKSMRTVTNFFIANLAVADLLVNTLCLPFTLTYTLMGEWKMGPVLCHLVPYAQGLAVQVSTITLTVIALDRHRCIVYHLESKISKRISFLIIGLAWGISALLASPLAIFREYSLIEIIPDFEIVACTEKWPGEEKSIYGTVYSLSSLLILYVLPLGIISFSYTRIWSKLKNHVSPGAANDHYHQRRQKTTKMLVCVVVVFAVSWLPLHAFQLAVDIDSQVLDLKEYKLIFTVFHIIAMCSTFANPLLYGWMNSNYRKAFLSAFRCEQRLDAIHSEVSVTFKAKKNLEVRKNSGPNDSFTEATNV
# Assay: cell-based or functional assay
row,Binder,Human Y2R EC50 [nM]
1,B3,0.018
2,B4,0.143
3,B5,0.01
4,B8,0.006
